The supplement of paper PMC9112550, “Optimization of the antimicrobial peptide Bac7 by deep mutational scanning” (BMC Biology, 2022)

system: Escherichia coli TOP10; assay: shrunken log2 fold change of peptide-encoding DNA abundance (4.5 h post-induction vs induction); higher = less antimicrobial activity (less host growth inhibition); settings: time post-induction: 4.5 h; library: site-saturation at positions 5, 18, 19, 20
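Also: peptides expressed intracellularly from a pBAD plasmid library in pooled LB shake-flask culture, induced with 0.3% L-arabinose, DNA abundance read by NGS, three biological replicates, DESeq2 with apeglm shrinkage.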

Sequence | shrunken log2 fold change
RRIRFRPPRLPRPRPRPQWNPRP | -0.345
RRIRYRPPRLPRPRPRPRAWPRP | -0.214
RRIRNRPPRLPRPRPRPMPAPRP | -0.142
RRIRHRPPRLPRPRPRPTFEPRP | 0.0452
RRIRIRPPRLPRPRPRPYTQPRP | -1.02
RRIRLRPPRLPRPRPRPDFEPRP | -0.0246
RRIRDRPPRLPRPRPRPSPFPRP | -0.0929
RRIRMRPPRLPRPRPRPWGSPRP | 0.0578
RRIRCRPPRLPRPRPRPMETPRP | -0.0136
RRIRIRPPRLPRPRPRPANKPRP | -0.222
RRIRWRPPRLPRPRPRPTRSPRP | 0.723
RRIRKRPPRLPRPRPRPMYWPRP | -0.111
RRIRGRPPRLPRPRPRPSGCPRP | 0.477
RRIRPRPPRLPRPRPRPHLTPRP | 0.185
RRIRRRPPRLPRPRPRPELKPRP | 0.254
RRIRCRPPRLPRPRPRPWMIPRP | -0.0852
RRIRPRPPRLPRPRPRPYKDPRP | -0.477
RRIRCRPPRLPRPRPRPAIHPRP | -0.248
RRIRVRPPRLPRPRPRPTGMPRP | 0.0943
RRIRARPPRLPRPRPRPLLHPRP | 0.264
RRIRCRPPRLPRPRPRPDKLPRP | 0.0152
RRIRFRPPRLPRPRPRPGRLPRP | 0.262
RRIRQRPPRLPRPRPRPELEPRP | -0.0293
RRIRMRPPRLPRPRPRPVIGPRP | -0.0424
RRIRYRPPRLPRPRPRPQIIPRP | -0.248

Sequence | shrunken log2 fold change
RRIRLRPPRLPRPRPRPIATPRP | 0.173
RRIRARPPRLPRPRPRPTCLPRP | 0.0548
RRIRERPPRLPRPRPRPAQAPRP | 0.073
RRIRMRPPRLPRPRPRPEMGPRP | 2.44
RRIRPRPPRLPRPRPRPCCMPRP | -0.144
RRIRQRPPRLPRPRPRPWLFPRP | 0.0523
RRIRARPPRLPRPRPRPLYTPRP | -0.0964
RRIRNRPPRLPRPRPRPGAFPRP | -0.0452
RRIRHRPPRLPRPRPRPGPPPRP | 0.228
RRIRRRPPRLPRPRPRPDKMPRP | -0.122
RRIRWRPPRLPRPRPRPYEDPRP | -0.231
RRIRIRPPRLPRPRPRPALHPRP | -0.268
RRIRHRPPRLPRPRPRPDIVPRP | -0.38
RRIRERPPRLPRPRPRPCETPRP | -0.336
RRIRDRPPRLPRPRPRPGCSPRP | 0.278
RRIRNRPPRLPRPRPRPAEVPRP | -0.144
RRIRGRPPRLPRPRPRPLQQPRP | 0.28
RRIRNRPPRLPRPRPRPWIKPRP | -0.739
RRIRDRPPRLPRPRPRPILCPRP | 0.0322
RRIRSRPPRLPRPRPRPVITPRP | -0.0353
RRIRKRPPRLPRPRPRPIFYPRP | -0.0532
RRIRQRPPRLPRPRPRPIMYPRP | -0.0857
RRIRPRPPRLPRPRPRPKNTPRP | -0.218
RRIRVRPPRLPRPRPRPYMKPRP | -1.04
RRIRTRPPRLPRPRPRPKYKPRP | -0.407

Sequence | shrunken log2 fold change
RRIRDRPPRLPRPRPRPTDLPRP | -0.0718
RRIRARPPRLPRPRPRPKLVPRP | 0.106
RRIRERPPRLPRPRPRPVNHPRP | -0.229
RRIRVRPPRLPRPRPRPVNLPRP | -0.322
RRIRRRPPRLPRPRPRPAHYPRP | 0.445
RRIRYRPPRLPRPRPRPDVIPRP | -0.0708
RRIRPRPPRLPRPRPRPQNDPRP | -0.371
RRIRGRPPRLPRPRPRPLGGPRP | 0.615
RRIRDRPPRLPRPRPRPGIIPRP | -0.171
RRIRNRPPRLPRPRPRPSLAPRP | 0.0683
RRIRARPPRLPRPRPRPVGRPRP | 0.691
RRIRGRPPRLPRPRPRPMLNPRP | 0.477
RRIRFRPPRLPRPRPRPCSSPRP | 0.0898
RRIRPRPPRLPRPRPRPWANPRP | -0.0618
RRIRRRPPRLPRPRPRPRCTPRP | 0.0974
RRIRNRPPRLPRPRPRPPLDPRP | 0.0724
RRIRFRPPRLPRPRPRPLTTPRP | 0.0259
RRIRNRPPRLPRPRPRPCTGPRP | -0.0472
RRIRRRPPRLPRPRPRPFDCPRP | 0.264
RRIRTRPPRLPRPRPRPPACPRP | 0.313
RRIRLRPPRLPRPRPRPSADPRP | 0.07
RRIRHRPPRLPRPRPRPRAHPRP | 0.216
RRIRFRPPRLPRPRPRPFVDPRP | -0.121
RRIRVRPPRLPRPRPRPNRTPRP | 0.0905
RRIRMRPPRLPRPRPRPHNIPRP | -0.0272

Sequence | shrunken log2 fold change
RRIRCRPPRLPRPRPRPVRCPRP | -0.00859
RRIRGRPPRLPRPRPRPEIIPRP | 1.5
RRIRARPPRLPRPRPRPNIQPRP | -0.122
RRIRQRPPRLPRPRPRPCTVPRP | -0.521
RRIRKRPPRLPRPRPRPPKVPRP | 0.613
RRIRCRPPRLPRPRPRPLDHPRP | -0.289
RRIRQRPPRLPRPRPRPCCEPRP | -0.256
RRIRQRPPRLPRPRPRPKHTPRP | -0.224
RRIRPRPPRLPRPRPRPFGRPRP | -0.314
RRIRNRPPRLPRPRPRPQCLPRP | 0.197
RRIRCRPPRLPRPRPRPGILPRP | -0.233
RRIRCRPPRLPRPRPRPHGCPRP | -0.037
RRIRFRPPRLPRPRPRPILSPRP | -0.101
RRIRHRPPRLPRPRPRPICLPRP | -0.225
RRIRRRPPRLPRPRPRPTIIPRP | -0.159
RRIRNRPPRLPRPRPRPEWGPRP | 0.114
RRIRPRPPRLPRPRPRPVEHPRP | 0.00343
RRIRVRPPRLPRPRPRPRRNPRP | 0.108
RRIRQRPPRLPRPRPRPERNPRP | 0.0526
RRIRSRPPRLPRPRPRPRCHPRP | -0.0928
RRIRMRPPRLPRPRPRPCAPPRP | 0.478
RRIRYRPPRLPRPRPRPNNNPRP | -0.989
RRIRARPPRLPRPRPRPRCIPRP | 0.459
RRIRFRPPRLPRPRPRPHYQPRP | -0.0104
RRIRPRPPRLPRPRPRPTSNPRP | -0.123

Sequence | shrunken log2 fold change
RRIRARPPRLPRPRPRPTISPRP | 0.0389
RRIRLRPPRLPRPRPRPAEKPRP | -0.0786
RRIRVRPPRLPRPRPRPTYFPRP | -0.0832
RRIRNRPPRLPRPRPRPHQHPRP | -0.654
RRIRGRPPRLPRPRPRPKEHPRP | 0.627
RRIRQRPPRLPRPRPRPPGYPRP | 0.225
RRIRVRPPRLPRPRPRPVSLPRP | 0.106
RRIRGRPPRLPRPRPRPIKCPRP | -0.0104
RRIRFRPPRLPRPRPRPLDTPRP | 0.0445
RRIRWRPPRLPRPRPRPHINPRP | -0.491
RRIRWRPPRLPRPRPRPGMEPRP | 0.302
RRIRTRPPRLPRPRPRPHYYPRP | -0.744
RRIRTRPPRLPRPRPRPIQVPRP | -0.0152
RRIRHRPPRLPRPRPRPWWRPRP | 0.219
RRIRNRPPRLPRPRPRPQPMPRP | -0.111
RRIRQRPPRLPRPRPRPLHKPRP | 0.0733
RRIRNRPPRLPRPRPRPATKPRP | -0.0346
RRIRWRPPRLPRPRPRPEMKPRP | 0.271
RRIRSRPPRLPRPRPRPSCYPRP | -0.511
RRIRQRPPRLPRPRPRPGFIPRP | -0.408
RRIRERPPRLPRPRPRPEHMPRP | -0.0272
RRIRARPPRLPRPRPRPQLKPRP | 0.237
RRIRYRPPRLPRPRPRPPPTPRP | 0.867
RRIRLRPPRLPRPRPRPSMAPRP | -0.0685
RRIRYRPPRLPRPRPRPFLWPRP | -0.0621

Sequence | shrunken log2 fold change
RRIRDRPPRLPRPRPRPFGGPRP | -0.0275
RRIRWRPPRLPRPRPRPMSIPRP | -0.191
RRIRVRPPRLPRPRPRPPSTPRP | 0.238
RRIRFRPPRLPRPRPRPESVPRP | 0.257
RRIRERPPRLPRPRPRPRYHPRP | -0.0105
RRIRDRPPRLPRPRPRPLIYPRP | -0.653
RRIRWRPPRLPRPRPRPVYDPRP | -0.15
RRIRARPPRLPRPRPRPDWIPRP | -0.0382
RRIRCRPPRLPRPRPRPENWPRP | 0.145
RRIRRRPPRLPRPRPRPLGRPRP | -0.143
RRIRKRPPRLPRPRPRPAPTPRP | 1.01
RRIRFRPPRLPRPRPRPCYSPRP | 0.019
RRIRTRPPRLPRPRPRPPCAPRP | 0.308
RRIRHRPPRLPRPRPRPNEIPRP | -0.21
RRIRFRPPRLPRPRPRPIASPRP | -0.015
RRIRKRPPRLPRPRPRPPPAPRP | 1.29
RRIRNRPPRLPRPRPRPHYPPRP | -0.465
RRIRYRPPRLPRPRPRPQGNPRP | -0.0344
RRIRQRPPRLPRPRPRPTSHPRP | 0.0206
RRIRIRPPRLPRPRPRPIDHPRP | -0.0137
RRIRERPPRLPRPRPRPNFPPRP | -0.169
RRIRPRPPRLPRPRPRPQRHPRP | -0.14
RRIRRRPPRLPRPRPRPLVDPRP | 0.106
RRIRVRPPRLPRPRPRPPTNPRP | 1.14
RRIRARPPRLPRPRPRPTWVPRP | 0.225
